Assay results reported in article doi:10.1101/2021.02.08.430375v1.

Substrate: NC(=O)CCCC[C@@H](S)CCS
Assay: purified protein
Details: 100 mM Na phosphate, 100 mM KCl, 8 mM TCEP pH 7.6, room temperature

B1: Lpd (dihydrolipoamide dehydrogenase; lipoamide dehydrogenase) (Escherichia coli K-12) (protein)
chain: MSTEIKTQVVVLGAGPAGYSAAFRCADLGLETVIVERYNTLGGVCLNVGCIPSKALLHVAKVIEEAKALAEHGIVFGEPKTDIDKIRTWKEKVINQLTGGLAGMAKGRKVKVVNGLGKFTGANTLEVEGENGKTVINFDNAIIAAGSRPIQLPFIPHEDPRIWDSTDALELKEVPERLLVMGGGIIGLEMGTVYHALGSQIDVVEMFDQVIPAADKDIVKVFTKRISKKFNLMLETKVTAVEAKEDGIYVTMEGKKAPAEPQRYDAVLVAIGRVPNGKNLDAGKAGVEVDDRGFIRVDKQLRTNVPHIFAIGDIVGQPMLAHKGVHEGHVAAEVIAGKKHYFDPKVIPSIAYTEPEVAWVGLTEKEAKEKGISYETATFPWAASGRAIASDCADGMTKLIFDKESHRVIGGAIVGTNGGELLGEIGLAIEMGCDAEDIALTIHAHPTLHESVGLAAEVFEGSITDLPNPKAKKK
Protein B1 has a Km of 180 ± 20 µM.
